This series deals with T1, His-EmrR (Chromobacterium violaceum ATCC 12472) (UniProt Q7P000).
T1 sequence: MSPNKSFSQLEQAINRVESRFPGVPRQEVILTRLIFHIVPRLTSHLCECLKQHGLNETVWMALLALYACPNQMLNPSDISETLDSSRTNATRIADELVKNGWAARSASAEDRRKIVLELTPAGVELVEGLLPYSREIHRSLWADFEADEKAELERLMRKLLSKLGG
Nature of the series: EMSA. The note with it: 32P-labelled PCR probes, 100-300 nM DTT-reduced His-EmrR, interaction buffer as in da Silva Neto 2012 and Previato-Mello 2017 (composition, pH …).
With “TTGGCAGAGCTCCAATGATGCATGTCGGTCCGGACGTGATTAATCTGGTGATAATCACCCGGGTTATTATTCGAGTGAAAAAGCGCGGGCTCAGCCAAGCTTATA (double strand) [emrCAB promoter]”, the binding entry is “binds”. Then “TTGGCACTGCAGCAAATAAGCCTGCCCGTGGCGGCGCCTCCCCCGCCGCCACTCTCCCTCCTTCCCCCGTCTCGCCGGCCCTTCGGCTGCCGCCGTCTACCGGCCGCCAATCTAACCCATTGTCATTTCGCCACACTTTTCGCCAGCATTTCATTAGCAAGGTTATTATTACTTGCAAAATAATACCGCACGTTACTAAAATGGCCGCATGAGTCCAAACAAGAAGCTTATA (double strand) [emrR promoter]”, with “binds”. Then “TTGGATCCGAAGGCCAGGCGCTGCATCTGGGCGGCGCCCACCCGAGCGCGCTGGAAAAACTGCTGTTCCCGCGGCTGGAAACCAGCCAGCTGCTGGGCGGCGGCAGCCAGCCGCTGCGGCTGACGCTGAGCTGGCAACAGGGTTGGGCGCAGATCGGCCTGTTCGAATGGACGGTGTGGCTGCTGCTGTCGCTGCTGCTGGGCCTGGGCATAGGCCTGGCCGGCTTCAGCTTCGTGCGCAGCAGCGACAGCTGCAGTAAT (double strand) [CV_0208 coding region]”, with “binds more weakly”.

These data come from paper PMC6249546.
